# Laboratory results as given in paper PMC8093899 (iScience, 2021).
# B1: HA98 (AA98 mAb mutant H13–112: heavy chain (I28K)/light chain (L51Y)) (antibody, V domains shown)
# VH: EVQLLESGAELVRPGASVKLSCKTSGYKFTNYWIHWVKQRSGQGLEWIARIYPGTDITYYNEKFKGKATLTVDKSSSSAYMLLSSLKSEDSSVYFCARSGGYWYFDVWGAGTTVTVSS
# VL: ELVMTQSPASLAVSLGQRATISCRASKSVSISGYSYMHWYQQKPGQPPKLYIYLASNLESGVPARFSGSGSGTDFTLNIHPVEEEDAATYYCQHSRELPYTFGGGTKLEIK
# B2: human CD146 fragment containing domain 4 and domain 5 (D4-D5, Gln336 to Leu519) (domain or fragment, UniProt P43121 336-519, looked up)
# chain: QELLVNYVSDVRVSPAAPERQEGSSLTLTCEAESSQDLEFQWLREETGQVLERGPVLQLHDLKREAGGGYRCVASVPSIPGLNRTQLVNVAIFGPPWMAFKERKVWVKENMVLNLSCEASGHPRPTISWNVNGTASEQDQDPQRVLSTLNVLVTPELLETGVECTASNDLGKNTSILFLELVNL
# modifications: two N-glycosylation sites on D4 and D5 seen in the electron density map
# Tests used:
# [1] = target: full-length CD146, wild type, with a FLAG tag or a Myc tag (human, UniProt P43121); experiment: co-IP
# full-length CD146, wild type, with a FLAG tag or a Myc tag, sequence (P43121 24-646): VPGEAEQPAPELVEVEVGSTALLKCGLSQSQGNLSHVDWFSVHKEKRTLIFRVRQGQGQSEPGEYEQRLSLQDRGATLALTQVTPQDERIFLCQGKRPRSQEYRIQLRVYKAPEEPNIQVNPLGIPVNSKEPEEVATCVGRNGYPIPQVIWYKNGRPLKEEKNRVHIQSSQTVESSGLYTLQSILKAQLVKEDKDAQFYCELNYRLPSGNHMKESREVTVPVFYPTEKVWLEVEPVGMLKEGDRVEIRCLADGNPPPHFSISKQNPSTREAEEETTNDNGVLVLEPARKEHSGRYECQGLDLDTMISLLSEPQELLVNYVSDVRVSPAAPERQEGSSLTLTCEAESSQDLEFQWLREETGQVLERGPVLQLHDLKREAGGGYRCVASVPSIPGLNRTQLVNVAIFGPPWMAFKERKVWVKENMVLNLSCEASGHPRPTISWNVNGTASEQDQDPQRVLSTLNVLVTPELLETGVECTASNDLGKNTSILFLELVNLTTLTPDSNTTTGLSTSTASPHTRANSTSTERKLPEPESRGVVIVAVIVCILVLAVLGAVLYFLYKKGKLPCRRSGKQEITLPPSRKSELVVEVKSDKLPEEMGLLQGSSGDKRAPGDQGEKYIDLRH
# [2] = target: the molecule itself; experiment: SEC
binder,measurement,setting,value
B1,binding result,[1],binds
B2,stoichiometry N,[2],2
